Results taken from patent US9272016B2, “Methods to enhance RNAi oligonucleotide delivery to respiratory epithelial cells” (University of Iowa Research Foundation, priority 2012, dated 2016).

B1: EGF: human Epidermal Growth Factor (Sigma-Aldrich) (protein, UniProt P01133 23-1207, looked up)
Pro-epidermal growth factor: PQHWSCPEGTLAGNGNSTCVGPAPFLIFSHGNSIFRIDTEGTNYEQLVVDAGVSVIMDFHYNEKRIYWVDLERQLLQRVFLNGSRQERVCNIEKNVSGMAINWINEEVIWSNQQEGIITVTDMKGNNSHILLSALKYPANVAVDPVERFIFWSSEVAGSLYRADLDGVGVKALLETSEKITAVSLDVLDKRLFWIQYNREGSNSLICSCDYDGGSVHISKHPTQHNLFAMSLFGDRIFYSTWKMKTIWIANKHTGKDMVRINLHSSFVPLGELKVVHPLAQPKAEDDTWEPEQKLCKLRKGNCSSTVCGQDLQSHLCMCAEGYALSRDRKYCEDVNECAFWNHGCTLGCKNTPGSYYCTCPVGFVLLPDGKRCHQLVSCPRNVSECSHDCVLTSEGPLCFCPEGSVLERDGKTCSGCSSPDNGGCSQLCVPLSPVSWECDCFPGYDLQLDEKSCAASGPQPFLLFANSQDIRHMHFDGTDYGTLLSQQMGMVYALDHDPVENKIYFAHTALKWIERANMDGSQRERLIEEGVDVPEGLAVDWIGRRFYWTDRGKSLIGRSDLNGKRSKIITKENISQPRGIAVHPMAKRLFWTDTGINPRIESSSLQGLGRLVIASSDLIWPSGITIDFLTDKLYWCDAKQSVIEMANLDGSKRRRLTQNDVGHPFAVAVFEDYVWFSDWAMPSVMRVNKRTGKDRVRLQGSMLKPSSLVVVHPLAKPGADPCLYQNGGCEHICKKRLGTAWCSCREGFMKASDGKTCLALDGHQLLAGGEVDLKNQVTPLDILSKTRVSEDNITESQHMLVAEIMVSDQDDCAPVGCSMYARCISEGEDATCQCLKGFAGDGKLCSDIDECEMGVPVCPPASSKCINTEGGYVCRCSEGYQGDGIHCLDIDECQLGEHSCGENASCTNTEGGYTCMCAGRLSEPGLICPDSTPPPHLREDDHHYSVRNSDSECPLSHDGYCLHDGVCMYIEALDKYACNCVVGYIGERCQYRDLKWWELRHAGHGQQQKVIVVAVCVVVLVMLLLLSLWGAHYYRTQKLLSKNPKNPYEESSRDVRSRRPADTEDGMSSCPQPWFVVIKEHQDLKNGGQPVAGEDGQAADGSMQPTSWRQEPQLCGMGTEQGCWIPVSSDKGSCPQVMERSFHMPSYGTQTLEGGVEKPHSLLSANPLWQQRALDPPHQMELTQ
modifications: Pro-epidermal growth factor
B2: KGF: Keratinocyte growth factor, a member of the fibroblast growth factor family (protein, UniProt P21781 32-194, looked up)
Fibroblast growth factor 7: CNDMTPEQMATNVNCSSPERHTRSYDYMEGGDIRVRRLFCRTQWYLRIDKRGKVKGTQEMKNNYNIMEIRTVAVGIVAIKGVESEFYLAMNKEGKLYAKKECNEDCNFKELILENHYNTYASAKWTHNGGEMFVALNQKGIPVRGKKTKKEQKTAHFLPMAIT

Legend:
Format in all cases: cell-based
human airway epithelia = assay: Confocal imaging of DIG-labeled siRNA uptake in human airway epithelia; conditions: EGF 100 μg/ml for 15 min, imaged 2 h after transfection, vs untreated cells (data not shown)
Procedure: The primary human airway epithelia grown at air-liquid interface were transfected with the DIG-labeled siRNA at a concentration of 250 ng/ml after complexing with Transductin. The transfection mixture was left on the apical surface for 2 h. At the end of this period, the cells were fixed in 2% formaldehyde, permeabilized in 0.2% Triton-x-100 and blocked in 1% BSA for 1 h. The cells were then stained with mouse antibody to DIG (Roche Biochemicals) for 1 h followed by either Alexa 488 labeled goat anti-mouse secondary antibody for 1 h followed by Alexa 488 labeled rabbit […] antibody (Invitrogen) for 1 or in some cases with Alexa 564 goat anti-mouse secondary antibody for 1 h. The cells were finally stained with nuclear stain, ToPro 3 for 10 minutes. The filter, containing the cells, was removed from the culture insert by cutting the edges with razor blade and then mounted onto a slide by the use of Vectashield. The slide was visualized by confocal microscopy.

HPRT mRNA [1] = assay: Pretreatment of well-differentiated human airway epithelia before HPRT siRNA transfection, qPCR
Procedure: (§1) For airway epithelia that were either well or poorly differentiated, transfection was done mostly according to the manufacturer's protocol. In all cases, the apical surface of epithelia was washed twice with PBS before adding the transfection mixture to the apical surface. The mixture was then left on the cells for 24 h for all transfection reagents. For PK1 cells, reverse transfection was performed in a 48-well plate by first adding the siRNA-RNAiMAX reagent mixture onto the plate and then adding the dispersed cells (40,000 cells) on top of the mixture and allowing the cells to adhere and establish growth for 24 h. […]
(§2) Total RNA was isolated using SV96 RNA isolation kit (Promega), according to manufacturer's protocol. […] One-fifteenth of the cDNA was then amplified and analyzed by Taqman assay in the 7900 Real Time PCR System (Applied Biosystems) using synthesized primer-probe pairs (IDT, Coralville, Iowa), reaction buffer and Immolase DNA polymerase (Bioline, Taunton, Mass.). […] Absolute quantification of an mRNA target sequence within an unknown sample was determined by reference to a standard curve. […]
(§3) Wortmannin was purchased from Sigma (St. Louis, Mo.) as a ready to use solution. […]

HPRT mRNA [2] = assay: Pretreatment of well differentiated pig airway epithelia before HPRT siRNA transfection, qPCR; conditions: well differentiated PAE; KGF 50 ng/ml 24 h, EGTA 6 mM 30 m, LLnL 40 μM 24 hrs; then 250 nM HPRT siRNA with RNAiMAX or Transductin
Procedure: as §1, §2, §3

Molecule | uptake of the DIG signal (human airway epithelia) | decrease in HPRT mRNA levels (HPRT mRNA [1]; human airway cells, EGF 100 μg/ml for 15 min apically before siRNA-Transductin (250 nM), 3 donors) | siRNA uptake and knockdown (HPRT mRNA [1]; pretreatment of the mucosal surface with EGF (200 μg/ml), well differentiated cells, species not stated) | silencing of HPRT mRNA after pretreatment (HPRT mRNA [2])
B1 | increased uptake | 15-20% | enhanced uptake and facilitated siRNA knockdown | –
B2 | – | – | – | did not reduce
